Source: patent US20010052137

Experiments:
[1] = system: T1, Myc-tagged GID-3 construct of Xaxin (amino acid residues 320-375)
T1 sequence: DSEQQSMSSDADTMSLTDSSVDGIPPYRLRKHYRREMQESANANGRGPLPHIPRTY

[2] = system: T2, Myc-tagged GID-6 construct of Xaxin (amino acid residues 380-404)
T2 sequence: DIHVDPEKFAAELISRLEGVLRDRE

[3] = system: T3, Myc-tagged GID-5 construct of Xaxin (amino acid residues 380-429)
T3 sequence: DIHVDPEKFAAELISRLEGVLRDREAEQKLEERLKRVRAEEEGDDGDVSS

[4] = system: T4, Myc-tagged GID-2 construct of Xaxin (amino acid residues 320-429)
T4 sequence: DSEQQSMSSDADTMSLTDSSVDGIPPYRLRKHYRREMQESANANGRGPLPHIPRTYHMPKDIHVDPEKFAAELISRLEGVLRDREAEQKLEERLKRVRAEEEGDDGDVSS

[5] = system: T5, Myc-tagged GID-4 construct of Xaxin (amino acid residues 350-429)
T5 sequence: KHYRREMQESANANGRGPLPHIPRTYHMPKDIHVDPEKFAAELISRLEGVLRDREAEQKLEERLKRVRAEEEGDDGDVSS

[6] = system: T6, GID-2/his fusion protein (Xaxin amino acid residues 320-429 with His-epitope tag, from E. coli)
T6 sequence: T4 sequence

Substance	GSK-3 beta mediated tau phosphorylation in Xenopus oocytes [1]	GSK-3 beta mediated tau phosphorylation in Xenopus oocytes [2]	GSK-3 beta mediated tau phosphorylation in Xenopus oocytes [3]	GSK-3 beta mediated tau phosphorylation in Xenopus oocytes [4]	GSK-3 beta mediated tau phosphorylation in Xenopus oocytes [5]	GSK-3 beta mediated phosphorylation of the GS-2 peptide derived from glycogen synthase, in vitro [6]	phosphorylation of tau by GSK-3 beta, in vitro [6]
GSK-3 beta (glycogen synthase kinase-3 beta) expressed in Xenopus oocytes	did not bind GSK-3 beta and had no effect on GSK-3 beta activity	bound GSK-3 beta and inhibited GSK-3 beta mediated tau phosphorylation	bound GSK-3 beta and inhibited GSK-3 beta mediated tau phosphorylation	bound GSK-3 beta and inhibited GSK-3 beta mediated tau phosphorylation	bound GSK-3 beta and inhibited GSK-3 beta mediated tau phosphorylation		
Recombinantly-produced GSK-3 beta protein (New England Biolabs)						GID-2/his exhibited no significant effect on GSK-3 beta mediated phosphorylation of the GS-2 peptide	GID-2/his also did not inhibit phosphorylation of tau by GSK-3 beta, even when GID-2/his was present at a 200-fold molar excess
